Measured values as given in patent US6600012.

Target: HLA.A2 on T2 mutant cells
Assay: T2 cell HLA.A2 upregulation assay, flow cytometry with MA2.1

B1: …, positive control peptide (peptide)
peptide: FLPSDYFPSV
modifications: not checked
Which % Change in mean channel intensity does the source give for B1 here?
Its % Change in mean channel intensity is 428%.
